Results: patent US20190085055A1

Legend:
[1] = target: D3H44 light chain F118W_V133S; test: LCCA (SPR), competitor L1 F116S
[2] = target: D3H44 light chain F118W_V133S; test: LCCA (SPR), competitor L1 F116A
[3] = target: D3H44 light chain, wild type; test: LCCA (SPR), competitor L2 F116A
D3H44 light chain F116A [4] = test: LCCA (SPR), competitor L1 WT
D3H44 light chain F116S = test: LCCA (SPR), competitor L2 F118W_V133S
D3H44 light chain F116A [5] = test: LCCA (SPR), competitor L2 F118W_V133S
[6] = target: D3H44 light chain, wild type; test: LCCA (SPR), competitor L2 F98L
D3H44 light chain F98L [7] = test: LCCA (SPR), competitor L1 WT
D3H44 light chain S176L = test: LCCA (SPR), competitor L2 WT
Chain of D3H44 light chain S176L (light, as listed by the source): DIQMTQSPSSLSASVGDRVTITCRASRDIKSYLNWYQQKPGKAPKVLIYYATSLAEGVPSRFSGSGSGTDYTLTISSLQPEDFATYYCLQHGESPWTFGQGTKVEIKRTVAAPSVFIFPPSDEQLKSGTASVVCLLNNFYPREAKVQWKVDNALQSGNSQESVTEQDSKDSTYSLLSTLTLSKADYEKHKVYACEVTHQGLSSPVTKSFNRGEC

[8] = target: D3H44 light chain, wild type; test: LCCA (SPR), competitor L1 S176L
D3H44 light chain Y87G = test: LCCA (SPR), competitor L2 P44W
Chain of D3H44 light chain Y87G (light, as listed by the source limits assumed): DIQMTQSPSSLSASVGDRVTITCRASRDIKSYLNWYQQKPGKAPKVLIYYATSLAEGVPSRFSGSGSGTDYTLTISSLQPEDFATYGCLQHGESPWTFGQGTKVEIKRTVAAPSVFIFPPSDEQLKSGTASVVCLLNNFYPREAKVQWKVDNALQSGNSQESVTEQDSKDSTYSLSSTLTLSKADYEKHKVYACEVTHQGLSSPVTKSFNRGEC

D3H44 light chain P44W [9] = test: LCCA (SPR), competitor L1 Y87G
D3H44 light chain Q38R = test: LCCA (SPR), competitor L2 Q38D
Chain of D3H44 light chain Q38R (light, as listed by the source): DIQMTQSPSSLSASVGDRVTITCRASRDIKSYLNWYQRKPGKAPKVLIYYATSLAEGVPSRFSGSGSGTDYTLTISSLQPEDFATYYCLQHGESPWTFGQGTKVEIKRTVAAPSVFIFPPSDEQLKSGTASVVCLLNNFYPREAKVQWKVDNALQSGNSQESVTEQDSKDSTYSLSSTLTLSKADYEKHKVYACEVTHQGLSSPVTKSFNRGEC

D3H44 light chain Q38D = test: LCCA (SPR), competitor L1 Q38R
Chain of D3H44 light chain Q38D (light, as listed by the source limits assumed): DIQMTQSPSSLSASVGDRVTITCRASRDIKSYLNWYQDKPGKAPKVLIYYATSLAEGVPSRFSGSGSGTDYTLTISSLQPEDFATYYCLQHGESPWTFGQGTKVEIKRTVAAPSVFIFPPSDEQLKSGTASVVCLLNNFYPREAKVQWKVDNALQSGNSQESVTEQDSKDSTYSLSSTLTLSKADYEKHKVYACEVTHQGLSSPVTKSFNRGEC

[10] = target: D3H44 light chain Q38N_T85E; test: LCCA (SPR), competitor L2 Q38N_T85K
Chain of D3H44 light chain Q38N_T85E (light, as listed by the source limits assumed): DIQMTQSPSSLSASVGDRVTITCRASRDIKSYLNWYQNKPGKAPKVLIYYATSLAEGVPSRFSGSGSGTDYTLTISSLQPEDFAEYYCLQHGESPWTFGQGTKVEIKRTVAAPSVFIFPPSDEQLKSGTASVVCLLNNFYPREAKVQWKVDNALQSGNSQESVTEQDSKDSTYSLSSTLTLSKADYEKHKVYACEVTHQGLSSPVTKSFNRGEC

[11] = target: D3H44 light chain Q38N_T85K; test: LCCA (SPR), competitor L1 Q38N_T85E
Chain of D3H44 light chain Q38N_T85K (light, as listed by the source limits assumed): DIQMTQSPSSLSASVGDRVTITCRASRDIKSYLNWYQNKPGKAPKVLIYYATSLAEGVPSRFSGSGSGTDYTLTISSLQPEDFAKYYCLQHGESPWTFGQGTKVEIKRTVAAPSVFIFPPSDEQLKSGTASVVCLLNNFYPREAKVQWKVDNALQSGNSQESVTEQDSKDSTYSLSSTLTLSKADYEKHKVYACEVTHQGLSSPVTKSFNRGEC

D3H44 light chain F98A [12] = test: LCCA (SPR), competitor L1 Q38R
D3H44 light chain F98L [13] = test: LCCA (SPR), competitor L2 P44W
D3H44 light chain P44W [14] = test: LCCA (SPR), competitor L1 F98L
D3H44 light chain P44W [15] = test: LCCA (SPR), competitor L2 F98A
D3H44 light chain F98W [16] = test: LCCA (SPR), competitor L1 P44W
D3H44 light chain F98A [17] = test: LCCA (SPR), competitor L1 P44W
D3H44 light chain P44W [18] = test: LCCA (SPR), competitor L2 F98W
D3H44 light chain P44W [19] = test: LCCA (SPR), competitor L2 F98L
D3H44 light chain F98L [20] = test: LCCA (SPR), competitor L1 P44W
[21] = target: D3H44 light chain L89R_F98T; test: LCCA (SPR), competitor L2 WT
Chain of D3H44 light chain L89R_F98T (light, as listed by the source limits assumed): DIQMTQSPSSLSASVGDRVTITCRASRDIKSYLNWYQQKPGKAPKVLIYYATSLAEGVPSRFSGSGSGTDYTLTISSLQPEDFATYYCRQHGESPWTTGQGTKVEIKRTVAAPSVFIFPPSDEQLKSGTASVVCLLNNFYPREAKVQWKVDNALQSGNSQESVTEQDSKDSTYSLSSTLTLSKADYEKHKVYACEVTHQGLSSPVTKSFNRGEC

[22] = target: D3H44 light chain, wild type; test: LCCA (SPR), competitor L1 L89R_F98T
D3H44 light chain F98Y = test: LCCA (SPR), competitor L1 L89R_F98W
Chain of D3H44 light chain F98Y (light, as listed by the source limits assumed): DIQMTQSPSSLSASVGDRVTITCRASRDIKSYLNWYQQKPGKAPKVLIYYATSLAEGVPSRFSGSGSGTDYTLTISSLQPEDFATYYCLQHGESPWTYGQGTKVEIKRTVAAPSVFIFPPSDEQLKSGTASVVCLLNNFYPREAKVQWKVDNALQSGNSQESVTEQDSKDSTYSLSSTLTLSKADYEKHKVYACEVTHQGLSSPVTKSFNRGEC

[23] = target: D3H44 light chain L89R_F98W; test: LCCA (SPR), competitor L2 F98Y
Chain of D3H44 light chain L89R_F98W (light, as listed by the source): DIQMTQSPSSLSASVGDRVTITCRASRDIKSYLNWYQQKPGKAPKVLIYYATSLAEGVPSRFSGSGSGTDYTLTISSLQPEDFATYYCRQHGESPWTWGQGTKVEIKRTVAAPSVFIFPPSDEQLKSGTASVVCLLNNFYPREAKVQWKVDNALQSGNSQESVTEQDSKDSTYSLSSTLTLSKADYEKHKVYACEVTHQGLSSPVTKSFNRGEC

D3H44 light chain F98W [24] = test: LCCA (SPR), competitor L1 F98L
D3H44 light chain F98L [25] = test: LCCA (SPR), competitor L2 F98W

Chain of D3H44 light chain, wild type (light, as listed by the source): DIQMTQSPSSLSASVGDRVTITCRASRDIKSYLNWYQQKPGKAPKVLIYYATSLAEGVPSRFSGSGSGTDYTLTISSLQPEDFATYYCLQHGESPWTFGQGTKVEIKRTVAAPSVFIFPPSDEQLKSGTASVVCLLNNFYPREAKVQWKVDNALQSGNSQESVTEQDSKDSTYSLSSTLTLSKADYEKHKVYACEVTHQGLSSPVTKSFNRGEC

## D3H44 heavy chain (Fab format) A139W_V190S
[1]
  H1 L2 of H1 L1:H1 L2 (screen): 15.7
  H1 L2 of H1 L1:H1 L2 (verification): 20.2
[2]
  H1 L2 of H1 L1:H1 L2 (screen): 33.4
  H1 L2 of H1 L1:H1 L2 (verification): 0.722
[3]
  H2 L1 of H2 L2:H2 L1 (screen): 21.1
  H2 L1 of H2 L2:H2 L1 (verification): 22.3
D3H44 light chain F116A [4]
  H2 L2 of H2 L2:H2 L1 (screen): 66.9
  H2 L2 of H2 L2:H2 L1 (verification): 43
D3H44 light chain F116S
  H1 L1 of H1 L1:H1 L2 (screen): 84.8
  H1 L1 of H1 L1:H1 L2 (verification): 55.4
D3H44 light chain F116A [5]
  H1 L1 of H1 L1:H1 L2 (screen): 68.7
  H1 L1 of H1 L1:H1 L2 (verification): 83.8

## D3H44 heavy chain (Fab format) F100W
[6]
  H2 L1 of H2 L2:H2 L1 (screen): 29.7
  H2 L1 of H2 L2:H2 L1 (verification): 44.9
D3H44 light chain F98L [7]
  H2 L2 of H2 L2:H2 L1 (screen): 56.8
  H2 L2 of H2 L2:H2 L1 (verification): 38.9

## D3H44 heavy chain (Fab format) F174V_S188L
D3H44 light chain S176L
  H2 L1 of H2 L2:H2 L1 (screen): 5.94
[8]
  H2 L2 of H2 L2:H2 L1 (screen): 103

## D3H44 heavy chain (Fab format) L45W
D3H44 light chain Y87G
  H1 L1 of H1 L1:H1 L2 (screen): 54.5
  H1 L1 of H1 L1:H1 L2 (verification): 58.1
D3H44 light chain P44W [9]
  H1 L2 of H1 L1:H1 L2 (screen): 23.9
  H1 L2 of H1 L1:H1 L2 (verification): 31

## D3H44 heavy chain (Fab format) Q39D
D3H44 light chain Q38R
  H1 L1 of H1 L1:H1 L2 (screen): 66.9
  H1 L1 of H1 L1:H1 L2 (verification): 61.8
D3H44 light chain Q38D
  H1 L2 of H1 L1:H1 L2 (screen): 34.5
  H1 L2 of H1 L1:H1 L2 (verification): 31.1
[10]
  H2 L1 of H2 L2:H2 L1 (screen): 27.4
[11]
  H2 L2 of H2 L2:H2 L1 (screen): 71.7

## D3H44 heavy chain (Fab format) Q39E
D3H44 light chain F98A [12]
  H1 L2 of H1 L1:H1 L2 (screen): 29.7
  H1 L2 of H1 L1:H1 L2 (verification): 7.2

## D3H44 heavy chain (Fab format) Q39K
[10]
  H1 L1 of H1 L1:H1 L2 (screen): 54.8
  H1 L1 of H1 L1:H1 L2 (verification): 66.5
[11]
  H1 L2 of H1 L1:H1 L2 (screen): 30.1
  H1 L2 of H1 L1:H1 L2 (verification): 21.7

## D3H44 heavy chain (Fab format) S188L
D3H44 light chain S176L
  H2 L1 of H2 L2:H2 L1 (screen): 9.32
[8]
  H2 L2 of H2 L2:H2 L1 (screen): 92.5

## D3H44 heavy chain (Fab format) V37A_W103H
D3H44 light chain F98L [13]
  H2 L1 of H2 L2:H2 L1 (screen): 6.38
D3H44 light chain Y87G
  H2 L1 of H2 L2:H2 L1 (screen): 18.9
D3H44 light chain P44W [14]
  H2 L2 of H2 L2:H2 L1 (screen): 66.5
D3H44 light chain P44W [9]
  H2 L2 of H2 L2:H2 L1 (screen): 53.1
D3H44 light chain P44W [15]
  H1 L1 of H1 L1:H1 L2 (screen): 67.5
  H1 L1 of H1 L1:H1 L2 (verification): 47.1
D3H44 light chain F98W [16]
  H1 L2 of H1 L1:H1 L2 (screen): 19.6
D3H44 light chain F98A [17]
  H1 L2 of H1 L1:H1 L2 (screen): 8.79
  H1 L2 of H1 L1:H1 L2 (verification): 12.3
D3H44 light chain P44W [18]
  H1 L1 of H1 L1:H1 L2 (screen): 53.6

## D3H44 heavy chain (Fab format) V37A_W103V
D3H44 light chain P44W [19]
  H2 L1 of H2 L2:H2 L1 (screen): 22.8
  H2 L1 of H2 L2:H2 L1 (verification): 23
D3H44 light chain P44W [15]
  H1 L1 of H1 L1:H1 L2 (screen): 58.9
D3H44 light chain F98L [20]
  H2 L2 of H2 L2:H2 L1 (screen): 54.8
  H2 L2 of H2 L2:H2 L1 (verification): 52
D3H44 light chain F98W [16]
  H2 L2 of H2 L2:H2 L1 (screen): 53
  H2 L2 of H2 L2:H2 L1 (verification): 23.3
D3H44 light chain F98A [17]
  H1 L2 of H1 L1:H1 L2 (screen): 25.3
D3H44 light chain P44W [18]
  H2 L1 of H2 L2:H2 L1 (screen): 18.6
  H2 L1 of H2 L2:H2 L1 (verification): 44.7

## D3H44 heavy chain (Fab format) V37E
[21]
  H1 L1 of H1 L1:H1 L2 (screen): 54.1
  H1 L1 of H1 L1:H1 L2 (verification): 90.9
[22]
  H1 L2 of H1 L1:H1 L2 (screen): 25
  H1 L2 of H1 L1:H1 L2 (verification): 16.5

## D3H44 heavy chain (Fab format) V37I_F100W
D3H44 light chain P44W [19]
  H2 L1 of H2 L2:H2 L1 (screen): 26.9
  H2 L1 of H2 L2:H2 L1 (verification): 47.9
D3H44 light chain F98L [20]
  H2 L2 of H2 L2:H2 L1 (screen): 67.3
  H2 L2 of H2 L2:H2 L1 (verification): 30.5

## D3H44 heavy chain (Fab format) V37S_A97K
D3H44 light chain F98Y
  H2 L2 of H2 L2:H2 L1 (screen): 71.6
  H2 L2 of H2 L2:H2 L1 (verification): 65.6
[23]
  H2 L1 of H2 L2:H2 L1 (screen): 0.5
  H2 L1 of H2 L2:H2 L1 (verification): 11.7

## D3H44 heavy chain (Fab format) V37W_W103F
D3H44 light chain F98W [24]
  H1 L2 of H1 L1:H1 L2 (screen): 14.8
  H1 L2 of H1 L1:H1 L2 (verification): 27.7
D3H44 light chain F98L [25]
  H1 L1 of H1 L1:H1 L2 (screen): 64.2
  H1 L1 of H1 L1:H1 L2 (verification): 38.2

## D3H44 heavy chain (Fab format) V37W_W103H
D3H44 light chain F98L [13]
  H1 L1 of H1 L1:H1 L2 (screen): 48.3
  H1 L1 of H1 L1:H1 L2 (verification): 56
D3H44 light chain P44W [14]
  H1 L2 of H1 L1:H1 L2 (screen): 29.2
  H1 L2 of H1 L1:H1 L2 (verification): 21.2
D3H44 light chain F98W [24]
  H1 L2 of H1 L1:H1 L2 (screen): 30
  H1 L2 of H1 L1:H1 L2 (verification): 30.5
D3H44 light chain F98L [25]
  H1 L1 of H1 L1:H1 L2 (screen): 57.2
  H1 L1 of H1 L1:H1 L2 (verification): 62.3

## D3H44 heavy chain (Fab format) V190G
[1]
  H1 L2 of H1 L1:H1 L2 (screen): 24.1
  H1 L2 of H1 L1:H1 L2 (verification): 50.8
[2]
  H1 L2 of H1 L1:H1 L2 (screen): 35.3
D3H44 light chain F116S
  H1 L1 of H1 L1:H1 L2 (screen): 78.2
  H1 L1 of H1 L1:H1 L2 (verification): 25.9
D3H44 light chain F116A [5]
  H1 L1 of H1 L1:H1 L2 (screen): 55.1
